Laboratory results: patent US20090203610A1, “METHODS OF TREATING OBESITY OR DIABETES USING NT-4/5” (RINAT NEUROSCIENCE CORPORATION, priority 2004, published 2009)

Assays:
Assay type in all cases: in vivo
db/db mice [1] = experiment: Blood glucose levels in db/db mice (Example 1); conditions: for blood glucose levels T0: day 0, before treatment; for blood glucose % effect T5-T0: day 5 vs day 0; for blood glucose levels T12: day 12; for blood glucose % effect T12-T0: day 12 vs day 0; for blood glucose levels T19: day 19 (dosing stopped day 12); for blood glucose % effect T19-T0: day 19 vs day 0; for blood glucose levels T26: day 26 (dosing stopped day 12); for blood glucose % effect T26-T0: day 26 vs day 0
Experimental: Administration of NT-4/5 and reference substances: Rosiglitazone (3 mg/kg, Sequoia Research Products Ltd., UK), a thiazolidinedione compound for the therapy of type 2 diabetes, was used in the present experiment as a reference. Phosphate buffer saline was used as vehicle in this experiment. NT-4/5 was obtained from Genentech.
A difference was considered significant for p<0.05.

[2] = tested on: NONcNZO-10 polygenic obese mice; experiment: Food intake in NONcNZO-10 mice (Example 4, Table 20)
Text: Test animals: 40 male NONcNZO-10 polygenic obese mice obtained from Jackson Laboratory at 10 weeks of age weighing in the range of 26-32 g were used in this study.
Administration of NT-4/5: NT-4/5 was produced in E. coli as descried in U.S. Pat. No. 6,184,360. The mice were divided into 6 groups of equivalent body weight and baseline blood glucose distribution (6-7 mice per group). […] A “paired-fed” control group received daily injection of vehicle, but were only fed with the same amount of food the 3 mg/kg group consumed the previous day. On the day when the treatment started (day 1), a baseline blood samples were collected for measuring glucose and triglyceride. Triglyceride level was measured on day 10. At the end of the study (day 12), a terminal blood sample was collected to determine glucose, triglyceride, electrolytes (Na, K, Cl), testoterone, corticosterone, thyroid hormone (total T4) and thyroid stimulating hormone (TSH) levels. Electrolytes, free testosterone, T4 and TSH levels of serum samples were measured by AniLytics (Gaithesburg, M.D) according to the standard protocols employed by the vendor. Other analytes were measured as described above. Body weight, food intake were monitored 5 days per week through out the entire study. Daily water intake was measured from day 5 through day 7.

DIO mice [3] = experiment: NT-4/5 versus BDNF on body weight and food intake of DIO mice (Example 10)
Text: Test animals: Mice with diet induced obesity (DIO) were used in this study. 22 male C57BL/6J mice were weaned at 4 weeks of age. Immediately after weaning they were put on 58% high fat diet (D12331i, Research Diet) through out the study. The DIO mice at 13 weeks of age weighing in the range of 28-40 g were used in this study.
Administration of NT-4/5 and BDNF: NT-4/5 was produced was produced as described in U.S. Pat. No. 6,184,360. The recombinant human BDNF was obtained from PeproTech Inc. (Rocky Hill, N.J.).
The mice were divided into 3 groups of equivalent body weight distribution (7-8 mice per group). Each group received 2 weekly intravenous doses of either vehicle, 2 mg/kg of NT-4/5 or 2 mg/kg of BDNF, respectively. Body weight and food intake were taken the day before treatment started (day 0) and followed subsequently on a daily basis.

[4] = tested on: NONcNZO-10 polygenic obese and diabetic mice; experiment: Body weight after intravenous NT-4/5 in NONcNZO-10 mice (Example 3); conditions: i.v. 1 mg/kg
Experimental: Experiment was also performed on the same type of mice by intravenous injection of vehicle (PBS) and NT-4/5 (1 mg/kg) on day 1 and on day 5. About 5% to about 10% reduction of body weight was observed between NT-4/5 treated group and vehicle group between day 2 and day 15.

DIO mice [5] = experiment: Body weight after intravenous NT-4/5 in DIO mice, separate study (Example 5); conditions: i.v. 5 mg/kg on day 1 and day 4
Text: Two way ANOVA followed by Bonferroni's post-test were used for statistical analysis.

db/db mice [6] = experiment: Daily food intake after single injection of NT-4/5 or pegylated NT-4/5 in db/db mice (Example 7, Table 22); conditions: for Daily food intake: single s.c. injection 5 mg/kg, db/db mice, mean
Experimental: Test animals: 30 female db/db mice at 7 weeks of age weighing in the range of 27-34 g were used in this study.
Administration of NT-4/5 and pegylated NT-4/5: Wild type NT-4/5 was obtained from Genentech Inc. The mice were divided into 5 groups of equivalent body weight distribution (6 mice per group). Each group received on the first day (day 1) of the study one and the only dose of either vehicle, 5 mg/kg of NT-4/5 produced as described above, 5 mg/kg of 2PEG-NT4-G1S, or 5 mg/kg of 1PEG-NT4-G1S. 2PEG-NT4-G1S represents one PEG molecule was conjugated to each NT-4/5 monomer in a NT-4/5 dimer, and 1PEG-NT4-G1S represents one PEG molecule was conjugated to only one monomer of the NT-4/5 dimer. 2PEG-NT4-G1S and 1PEG-NT4-G1S were separated by ion exchange. Four days before starting the treatment (day −4), blood samples were collected from the mice as described previously for the determination of baseline levels of serum glucose. On day 4 after the treatment started, blood samples were collected again to determine serum glucose level. Body weight and food intake were monitored 5 days a week through out the entire study.

[7] = tested on: NONcNZO-10 polygenic obese mice; experiment: Pegylated NT-4/5 cysteine mutant on body weight, food intake, glucose, triglyceride in NONcNZO-10 mice (Example 6)
Experimental: Test animals: 30 male NONcNZO-10 polygenic obese mice at 10 weeks of age weighing in the range of 27-32 g were used in this study.
Administration of NT-4/5 and pegylated NT-4/5: The mice were divided into 4 groups of equivalent body weight distribution (7-8 mice per group). Each group received on the first day (day 1) of the study one and the only dose of either vehicle alone, 1 mg/kg of NT-4/5 or 1 mg/kg of PEG-NT4-S50C, respectively. A final group received a daily subcutaneous dose of 1 mg/kg of NT-4/5 from day 1 to day 5, then from day 7 to day 9. On day 9 after the treatment started, blood samples were collected to determine serum glucose and triglyceride levels. Body weight and food intake were monitored 5 days a week through out the entire study.

[8] = NT-4/5 20 mg/kg s.c., Rosiglitazone 3 mg/kg p.o.
[9] = weekly intravenous injection, 2 mg/kg
[10] = single subcutaneous injection of 1 mg/kg, day 9

`CN(CCOc1ccc(CC2SC(=O)NC2=O)cc1)c1ccccn1` (centres unmarked) [Rosiglitazone, reference compound] was tested, and the “blood glucose levels T0” value (db/db mice [1]; [8]) was 37.56 mM, the “blood glucose % effect T5-T0” value (db/db mice [1]; [8]) was −40.5% and the “blood glucose levels T12” value (db/db mice [1]; [8]) was 22.24 mM. For the same molecule, the “blood glucose % effect T12-T0” value (db/db mice [1]; [8]) was −40.9%, the “blood glucose levels T19” value (db/db mice [1]; [8]) was 33.74 mM and the “blood glucose % effect T19-T0” value (db/db mice [1]; [8]) was −9.0%. For the same molecule, the “blood glucose levels T26” value (db/db mice [1]; [8]) was 43.60 mM and the “blood glucose % effect T26-T0” value (db/db mice [1]; [8]) was 17.5%.

B1: NT-4/5: mature human neurotrophin-4/5 (SEQ ID NO:1), obtained from Genentech or produced in E. coli (protein, listed as Homo sapiens)
chain: GVSETAPASRRGELAVCDAVSGWVTDRRTAVDLRGREVEVLGEVPAAGGSPLRQYFFETRCKADNAEEGGPGAGGGGCRGVDRRHWVSECKAKQSYVRALTADAQGRVGWRWIRIDTACVCTLLSRTGRA
With B1 the “blood glucose levels T0” value (db/db mice [1]; [8]) was 36.95 mM, the “blood glucose levels T5” value (db/db mice [1]; day 5, NT-4/5 20 mg/kg s.c., Rosiglitazone 3 mg/kg p.o.) was 15.78 mM and the “blood glucose % effect T5-T0” value (db/db mice [1]; [8]) was −56.4%. The “blood glucose levels T12” value (db/db mice [1]; [8]) was 13.56 mM, the “blood glucose % effect T12-T0” value (db/db mice [1]; [8]) was −62.6% and the “blood glucose levels T19” value (db/db mice [1]; [8]) was 12.65 mM. The “blood glucose % effect T19-T0” value (db/db mice [1]; [8]) was −65.2%, the “blood glucose levels T26” value (db/db mice [1]; [8]) was 22.50 mM and the “blood glucose % effect T26-T0” value (db/db mice [1]; [8]) was −37.9%. The “level of blood glucose lower than that of vehicle treated mice” value (db/db mice [1]; throughout the rest of the study, 20 mg/kg s.c.) was “at least 50%”, the “food intake” value ([2]; 3 mg/kg) was “a significant reduction in food intake” and the “food intake” value ([2]; dose dependent manner) was “reduced”. For the same molecule, the “body weight on day 2” value (DIO mice [3]; 2 mg/kg i.v.) was “reduced body weight significantly”, the “food intake on day 2” value (DIO mice [3]; 2 mg/kg i.v.) was “reduced food intake significantly” and the “body weight” value (DIO mice [3]; [9]) was “reduced the body weight more effectively than that of BDNF”. For the same molecule, the “food intake” value (DIO mice [3]; [9]) was “reduced the food intake more effectively than that of BDNF”, the “time body weight reduction maintained after 2 staggered intravenous doses” value [4] was “up to 10 days” and the “reduction of body weight” value (DIO mice [5]) was “about 5%”. The “time reduced body weight maintained after the second dose” value (DIO mice [5]) was “at least 10 days”, the Daily food intake (db/db mice [6]; Day 1) was 6.6 g/day and the Daily food intake (db/db mice [6]; Day 2) was 5.2 g/day. The Daily food intake (db/db mice [6]; Day 3) was 7.3 g/day, the Daily food intake (db/db mice [6]; Day 4) was 6.3 g/day and the “food intake” value (db/db mice [6]; single subcutaneous injection, 5 mg/kg, significantly) was “reduced”. The triglyderide level reduction ([7]; daily dose of 1 mg/kg, on average, P<0.01) was “about 50%”, the “blood glucose level reduction” value ([7]; daily dose of 1 mg/kg, on average, P<0.05) was “about 50%” and the “Daily food intake” value ([7]; daily injection of 1 mg/kg) was “without affecting daily food intake”. The “body weight” value ([7]; daily injection of 1 mg/kg) was “significantly reduced body weight”, the “blood glucose level” value [7, 10] was “did not significantly reduce” and the “triglyceride level” value [7, 10] was “did not significantly reduce”.
